Measured values reported in a protein production outcome set (Wang et al. 2014).

Test: label from the status in PepcDB records

| Sequence | protein production |
| --- | --- |
| MHLQKLKNIVWTKRIGHLFERVTDIENIKRAIKRAAKRKTHRPSVQRILNDIDSYARKIQEMLVNETFVPAKYTIREIYDGIKKKKRVIAVPRFYPDQCIHHAFVQVFREIVEHGADKFSCGCVPGKGTDGARKMIKHWIKSDPIGTSKVLKLDVHHCYPTMNHEALRQKLEKKIKDRKLLNLAFKLIASYQQPMADHTRMLPEVDAVGIPVGLYTSPWFCNFFFQDIDHMIAEKTGAKHHTRYVDDIVLFDSNKRRLHKALRMIADELRKVKMQVKANWQVFPLKDRPLDFLGYKFHAGAWTTLRKSIMFRISHKAKKISKISYISPTNASGMISYMGFIYNSDSWNFWKERVKPFINLKLLKGVVSNENRKQHQAACAA | failed |
| MTNLVDKAAHSFATQNVVFQTLATASGKLVGVVTLNVEKALNALDLDMVRAMTVQLNLWKKDPLIACVVLDGSGEKAFCAGGDVRALYHASVAAKGQVTEVAKVFFEEEYRLDYLLHTYGKPVLVWGDGIVMGGGLGLMAGASHKVVTETSRIAMPEVTIGLYPDVGGSYFLNRMPGKMGLFLGLTAYHMNAADACYVGLADHYLNRDDKELMFDAMATLDWSDSPALNHQRLDTMINELSNQVDIPKGDSVLAESQEMIDRLMAGSLTDIVTRMSTLSTDEAWLSKACATMLAGSPISWHLAYIQTQLGTKLSLAQCFKWELTVSVNVCAKGDFCEGVRALLIDKDKQPKWQFADVQSVPNSVIEDILTSPWGEEHPLSQLS | not failed |
| MKLIIAIVQDKDSNRLSSQFIEANVRATKLSTTGGFLRSGNTTFMIGIDDDRVDEVLAMIKETSHAREQFMTPPVNLDVTMDGAAAYPVEVQVGGATVFVLPIEQFHQF | failed |
| MADADLVMTGTVLTVDDARPTAEAIAVADGRVIAVGDRSEVAGLVGANTRVIDLGAGCVMPGFVEAHGHPLLEAVVLSDRFVDIRPVTMRDADDVVAAIRGEVARRGPAGAYLVGWDPLLQSGLGEPTLTWLDSLAPNGPLVIIHNSGHKAYFNSHAAWLNGLTRDTADPKGAKYGRDGNGELDGTAEEIGAILPLLAGVADPSNFGAMLRAECARLNRAGLTTCSEMAFDPGYRPMVEAVRAELTVRLCTYEISNARMCTDATPGQGDDMLRQVGIKIWVDGSPWVGNIDLTFPYLDTPATRAIGVPPGSRGCANYTREQLAEIVGAYFPRGWQIACHVHGDGGVDTILDVYEEALRRNPRDDHRLRLEHVGAIRPDQLRRAAELGVTCSIFVDQIHYWGDVIVDDLFGAQRGSRWMPAGSAVAAGMRISLHNDPPVTPEEPLRNISVAATRVAPSGRVLAPEERLTVEQAIRAQTIDAAWQLFAEDAIGSLQVGKYADMVVLSADPRTVPPEQIADLAVRATFLAGRQVYRRLEHHHHHH | failed |
| SRPLGEVYLDSSKPAVYNYPEGAAYEFNAAAAANAQVYGQTGLPYGPGSEAAAFGSNGLGGFPPLNSVSPSPLMLLHPPPQLSPFLQPHGQQVPYYLENEPSGYTVREAGPPAFYRPNSDNRRQG | not failed |
| MRTALLEVGLEELPASEFHSILKQLEEKSAELLKAYRVSSGSVEVFVGSRRFGVILKNLPERQEDFTEEKKGPPLNVAYDENGKPTRALEGFLRNNNASLENVVHREGYVYLSRVVEGKPVEEVLPDLFRDLVLGLNFRKPMRWGSGEHEYIRPVHWIVAMVDGRVLDLEIFGLRSSRISYGKRYHAGSIEIPDSERYYESLKKGFVISSHLERKKFVLEQIDEFEKRSSMKIERDEELIEEIVAITEYPRIVVGQFDRKYLELPEEIIVTAVKHHQRSFIAHKGTLTNTFVAFQDGPQPPENVVKGYERVINARLEDARYYFQKDLETPLEKMNEKLKEIVFQEKLGTLYDKVERIKKISQRLCEDLKLPGSFTQKVLEAASICKADIASKVVYEFPELQGVMGRIYALREGINEEIATAIEDHYSEEPQTVIGSILGIADRIDTIVGNFAIGNVPTSSKDPYGLKSKADTIFRIIRKNEWDISLEELLTFASSLVGYRLSEELETFFAGRFYQFLINELGISFDVARAVNHLWKKPLR | failed |
| DNMEAVKTFNSELYSLNDYKPPISKAKMTQITKAAIKAIKFYKHVVQSVEKFIQKCKPEYKVPGLYVIDSIVRQSRHQFGQEKDVFAPRFSNNIISTFQNLYRCPGDDKSKIVRVLNLWQKNNVFKSEIIQPLLDMAAG | not failed |
| MEKVTLIATATMGLEALVAREVKDLGYEDVKVENGKVTFTSDVAAIPRANLWLRTADRVKLKVGEFKALTFDELFEKTKSLPWADIIPVHAEFPVIGRSVKSKLFSVSDCQAIVKKAVVESMKKRYKRGWFDENGPLYRIEVALHKDIATLTIDTSGTGLHKRGYRYLHSQAPLKETLAAAIIMLSHWKSDRPFADPFCGSGTIPIEAAMIGQNIAPGFNREFVSEQWHWIGSEHWDRAREEVEDMANYDQPLDILGSDIDHRMVELAQNNAMEAGFGDLISFKQMQVTDFRHKEEYGILIGNPPYGERIGEREEVEKMYQKMGEVFREHLETWSIYILTSHEGFEELYGKRATKKRKLYNGNIKTDYYQFFGPRPPRHPEGSQQ | failed |
| PLKEQKVINTANIKTNSKLDLAEYENGLINIATQQFDTESHVLQLNQYIPEKLIDELVAKVEAPVLTNIIEQDYFGKQNSNELSLSGVMIGLAMSSSVSNEEAMSKGTEVAKQLIEAINKNDKYNKSPITFAIFKQESTSSLKNGTYIASATVQKNDTNLGNWSTIDEKSYSYPSDEFTQAHGEDNTKINNFAKEIKGFSNGDFIPVNAKVSYKKDQMDTLNMNIVIKYNGKTELMALTQLAAQGMLDKLPKDAKVQLQIKSESKIEAVIIKEKNSDKPFVSFL | not failed |
| MSKFRSCSWKCSDMGKSLCGAGGLVWTPPHPLLRKALSHRGRGVKDTNFVGMTTRAVRKGTLRARALRRTQTVEEKTLWLALRNRFLNVKFRRQWPMGGYVVDFVCFEAKLIVELDGSQHAEEAARDYDAVRTEFLEAGGFTVLRFWNNEVRKNLEGVLLEIQKRLP | failed |
| MSLTHVIWDMGETLNTVPNTRYDHHPLDTYPEVVLRKNAKETLEKVKQLGFKQAILSNTATSDTEVIKRVLTNFGIIDYFDFIYASNSELQPGKMEKPDKTIFDFTLNALQIDKTEAVMVGNTFESDIIGANRAGIHAIWLQNPEVCLQDERLPLVAPPFVIPVWDLADVPEALLLLKKISEGHHHHHH | not failed |
| MFRKVLFPTDFSEGAYRAVEVFEKRNKMEVGEVILLHVIDEGTLEELMDGYSFFYDNAEIELKDIKEKLKEEASRKLQEKAEEVKRAFRAKNVRTIIRFGIPWDEIVKVAEEENVSLIILPSRGKLSLSHEFLGSTVMRVLRKTKKPVLIIKEVDENELAKTKGTSG | not failed |
| SEAWEYFHLAPARAGHHPNQYATCRLCGRQVSRGPGVNVGTTALWKHLKSMHREELEKSGHGQ | not failed |
| MKALNDSYDVVVVGAGPAGSMASYNASKNGAKTLLIEKSQEIGTPVRCAEAVPRLEDFGINPDPSFVKSYIRGGYLIAPNGKKIVVKGGKTDGYVVERKVFDKFLAIRSGQAGTQIAVKSRVTKIEKTDDGYNVFVNYLGDEYIVKSKIVIAADGVESNIAEYAGLKSKKNPKEICSCAEYEMTNVKLLNNEMMEFYFGDICPKGYIWLFPKGDTVNVGIGVIDSKKRAIDYLDEFLTHPLVEGRLDNAVPVEFKVGGDPVGGPIKKTVADNIMVVGDAAGHVSPLTGGGIGLSMDCGLMAGDVAAQSIKAENYSEEFLDLYEKKWKEKYYKLLMNDLKYKNILQKLSDDELNAIANSIPENLEEVDVGKLAIKIVAKAPSLLRHFKELL | failed |
| MNGMLLSRIKKKAMELAEDLKLVDFSFGLPYTWVLVEGIEGRALGVAMTLPEEVQRYTNSIEEPSLLEFIDKADSLNIIERTLGVAAINAVSQYYIDLREAKWIDVTELIQQDEIKRIAIIGNMPPVVRTLKEKYEVYVFERNMKLWDRDTYSDTLEYHILPEVDGIIASASCIVNGTLDMILDRAKKAKLIVITGPTGQLLPEFLKGTKVTHLASMKVTNIEKALVKLKLGSFKGFESESIKYVIEV | not failed |
| MNQLPNCPKCLSEYCYEDGDVLICPECTHEWPKNSNNNDEESAKIIKDANGNLLQNGDTITVVKDLKIKGSSQVIKVGTKVKNIRLVDGDHDIDCRIDGIGAMKLKSQFVKKILEHHHHHH | failed |
| NGMDEEQRQKRRRIEVALIEYRETLEEQGMKNPEEIERKVEINRKRLEVDYGLS | not failed |
| LLHRTFMADAGWSDLKAFEVILRHIPHDAALHAANSTPVRYLQLFEHAHYAGGEWSNRGTNGIEGATSTAMGFSEVYSGTTLLITGDLSFMYDSNALWMPYVNGRIRVIVMRNGGGGIFRFIPGPDSLKELETCFETPLEVPVREMAGAYGWRYMKAVSAEELETVLPSFFASGDRAVLLEVETPRFENAPVLKSYFTYISGESYPVNR | failed |
